# Data from the supplement of paper PMC10567573.
# B1: EHMT1 (parent)
# chain: EEINKNISDFGRQQLLPPFPSLHQ
# Variants of: B1
# Experiment: protein stability index of a GFP-peptide fusion (GPS, HEK-293T) (PSI 1-6); higher = more stable
# Conditions: c terminus: a fixed tail appended
# 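Note: lentivirally expressed fusions sorted by FACS into six bins by GFP to DsRed ratio, PSI derived from sequencing read proportions per bin multiplied by bin number.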
row,Variant,protein stability index
1,EEINKWISDFGRQQLLPPFPSLHQ [N6W],1.76
2,EEINKSISDFGRQQLLPPFPSLHQ [N6S],3.15
3,EEINKFISDFGRQQLLPPFPSLHQ [N6F],1.91
4,EEINKQISDFGRQQLLPPFPSLHQ [N6Q],2.71
5,EEINKTISDFGRQQLLPPFPSLHQ [N6T],2.65
6,EEINKVISDFGRQQLLPPFPSLHQ [N6V],2.71
7,EEINKAISDFGRQQLLPPFPSLHQ [N6A],2.85
8,EEINKEISDFGRQQLLPPFPSLHQ [N6E],2.91
9,EEINKIISDFGRQQLLPPFPSLHQ [N6I],2.17
10,EEINKYISDFGRQQLLPPFPSLHQ [N6Y],2.09
11,EEINKKISDFGRQQLLPPFPSLHQ [N6K],2.38
12,EEINKCISDFGRQQLLPPFPSLHQ [N6C],2.44
13,EEINKDISDFGRQQLLPPFPSLHQ [N6D],3.15
14,EEINKMISDFGRQQLLPPFPSLHQ [N6M],2.92
15,EEINKPISDFGRQQLLPPFPSLHQ [N6P],2.92
16,EEINKNISDVGRQQLLPPFPSLHQ [F10V],3.04
17,EEINKNISDMGRQQLLPPFPSLHQ [F10M],3.04
18,EEINKNISDSGRQQLLPPFPSLHQ [F10S],3.4
19,EEINKNISDPGRQQLLPPFPSLHQ [F10P],3.31
20,EEINKNISDYGRQQLLPPFPSLHQ [F10Y],3.11
21,EEINKNISDQGRQQLLPPFPSLHQ [F10Q],3.3
22,EEINKNISDHGRQQLLPPFPSLHQ [F10H],2.99
23,EEINKNISDAGRQQLLPPFPSLHQ [F10A],3.04
24,EEINKNISDEGRQQLLPPFPSLHQ [F10E],3.37

row,Variant,protein stability index
1,EEINKNISDIGRQQLLPPFPSLHQ [F10I],2.52
2,EEINKNISDKGRQQLLPPFPSLHQ [F10K],3.45
3,EEINKNISDTGRQQLLPPFPSLHQ [F10T],2.86
4,EEINKNISDDGRQQLLPPFPSLHQ [F10D],3.91
5,EEINKNISDGGRQQLLPPFPSLHQ [F10G],3.39
6,EEINKNISDCGRQQLLPPFPSLHQ [F10C],2.6
7,EEINKNISDNGRQQLLPPFPSLHQ [F10N],3.24
8,EEINKNISDWGRQQLLPPFPSLHQ [F10W],2.59
9,EEINKNISDRGRQQLLPPFPSLHQ [F10R],2.88
10,EEINKNISDLGRQQLLPPFPSLHQ [F10L],2.91
11,EEINKNISLFGRQQLLPPFPSLHQ [D9L],2.58
12,EEINKNISWFGRQQLLPPFPSLHQ [D9W],2.15
13,EEINKNISHFGRQQLLPPFPSLHQ [D9H],2.41
14,EEINKNISVFGRQQLLPPFPSLHQ [D9V],2.31
15,EEINKNISYFGRQQLLPPFPSLHQ [D9Y],2.4
16,EEINKNISFFGRQQLLPPFPSLHQ [D9F],2.1
17,EEINKNISNFGRQQLLPPFPSLHQ [D9N],2.43
18,EEINKNISQFGRQQLLPPFPSLHQ [D9Q],2.63
19,EEINKNISGFGRQQLLPPFPSLHQ [D9G],2.65
20,EEINKNISEFGRQQLLPPFPSLHQ [D9E],2.5
21,EEINKNISAFGRQQLLPPFPSLHQ [D9A],2.38
22,EEINKNISPFGRQQLLPPFPSLHQ [D9P],2.45
23,EEINKNISKFGRQQLLPPFPSLHQ [D9K],2.18
24,EEINKNISMFGRQQLLPPFPSLHQ [D9M],2.02

row,Variant,protein stability index
1,EEINKNISIFGRQQLLPPFPSLHQ [D9I],2.21
2,EEINKNISSFGRQQLLPPFPSLHQ [D9S],2.42
3,EEINKNISCFGRQQLLPPFPSLHQ [D9C],2.09
4,EEINKNISTFGRQQLLPPFPSLHQ [D9T],2.61
5,EEINKNISRFGRQQLLPPFPSLHQ [D9R],2.22
6,EEINKNIRDFGRQQLLPPFPSLHQ [S8R],2.71
7,EEINKNIIDFGRQQLLPPFPSLHQ [S8I],2.82
8,EEINKNINDFGRQQLLPPFPSLHQ [S8N],2.46
9,EEINKNIYDFGRQQLLPPFPSLHQ [S8Y],2.53
10,EEINKNIPDFGRQQLLPPFPSLHQ [S8P],3.12
11,EEINKNIADFGRQQLLPPFPSLHQ [S8A],3.22
12,EEINKNICDFGRQQLLPPFPSLHQ [S8C],2.62
13,EEINKNILDFGRQQLLPPFPSLHQ [S8L],2.12
14,EEINKNITDFGRQQLLPPFPSLHQ [S8T],2.77
15,EEINKNIFDFGRQQLLPPFPSLHQ [S8F],2.64
16,EEINKNIGDFGRQQLLPPFPSLHQ [S8G],2.55
17,EEINKNIDDFGRQQLLPPFPSLHQ [S8D],3.07
18,EEINKNIMDFGRQQLLPPFPSLHQ [S8M],2.72
19,EEINKNIKDFGRQQLLPPFPSLHQ [S8K],3.02
20,EEINKNIHDFGRQQLLPPFPSLHQ [S8H],2.77
21,EEINKNIWDFGRQQLLPPFPSLHQ [S8W],2.02
22,EEINKNIQDFGRQQLLPPFPSLHQ [S8Q],2.64
23,EEINKNIVDFGRQQLLPPFPSLHQ [S8V],3.21
24,EEINKNIEDFGRQQLLPPFPSLHQ [S8E],2.86

row,Variant,protein stability index
1,EEINKNISDFDRQQLLPPFPSLHQ [G11D],2.97
2,EEINKNISDFARQQLLPPFPSLHQ [G11A],2.88
3,EEINKNISDFCRQQLLPPFPSLHQ [G11C],1.94
4,EEINANISDFGRQQLLPPFPSLHQ [K5A],3.05
5,EEINRNISDFGRQQLLPPFPSLHQ [K5R],2.57
6,EEINYNISDFGRQQLLPPFPSLHQ [K5Y],2.13
7,EEINCNISDFGRQQLLPPFPSLHQ [K5C],2.54
8,EEINTNISDFGRQQLLPPFPSLHQ [K5T],3.16
9,EEININISDFGRQQLLPPFPSLHQ [K5I],2.51
10,EEINFNISDFGRQQLLPPFPSLHQ [K5F],2.28
11,EEINVNISDFGRQQLLPPFPSLHQ [K5V],2.68
12,EEINQNISDFGRQQLLPPFPSLHQ [K5Q],3.11
13,EEINLNISDFGRQQLLPPFPSLHQ [K5L],2.72
14,EEINPNISDFGRQQLLPPFPSLHQ [K5P],3.06
15,EEINHNISDFGRQQLLPPFPSLHQ [K5H],2.86
16,EEINMNISDFGRQQLLPPFPSLHQ [K5M],3.23
17,EEINWNISDFGRQQLLPPFPSLHQ [K5W],2.6
18,EEINENISDFGRQQLLPPFPSLHQ [K5E],3.15
19,EEINDNISDFGRQQLLPPFPSLHQ [K5D],3.37
20,EEINSNISDFGRQQLLPPFPSLHQ [K5S],2.84
21,EEINNNISDFGRQQLLPPFPSLHQ [K5N],3.28
22,EEINGNISDFGRQQLLPPFPSLHQ [K5G],2.71
